Substitutions are numbered along the chain they refer to. Names may count otherwise. Where two headings read alike, the source gives them in different places. One block for each molecule: values may come before it. Non-standard residues stand in square brackets, D forms with d. No end group written: not given here. pY = N[C@@H](Cc1ccc(OP(=O)(O)O)cc1)C(=O)O
Key:
E6AP AZUL (Homo sapiens) [1] = molecular target: E6AP AZUL (Homo sapiens) (UniProt Q05086); settings: cited from earlier work
E6AP AZUL (Homo sapiens) [2] = molecular target: E6AP AZUL (Homo sapiens) (UniProt Q05086); assay: SPR; settings: cited from earlier work
E6AP AZUL (Homo sapiens) [3] = molecular target: E6AP AZUL (Homo sapiens) (UniProt Q05086); assay: ITC; settings: cited from earlier work
E6AP AZUL 24-87 [4] = molecular target: T1, E6AP AZUL 24-87 (Homo sapiens, UniProt Q05086); assay: ITC
T1 chain: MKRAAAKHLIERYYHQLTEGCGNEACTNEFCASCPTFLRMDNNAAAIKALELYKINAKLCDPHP

E6AP AZUL 24-87 [5] = molecular target: T1, E6AP AZUL 24-87; assay: fluorescence
E6AP AZUL 24-87 [6] = molecular target: T1, E6AP AZUL 24-87; assay: fluorescence (dual probe)
E6AP AZUL 24-87 [7] = molecular target: T1, E6AP AZUL 24-87; assay: fluorescence competition (25 nM S337C-Atto610:AZUL)
E6AP AZUL 24-87 [8] = molecular target: T1, E6AP AZUL 24-87; assay: fluorescence competition (10 nM S337C-Atto610:AZUL)
E6AP AZUL 24-87 [9] = molecular target: T1, E6AP AZUL 24-87; assay: fluorescence competition (25 nM S358C-acrylodan:AZUL)
E6AP AZUL 24-87 [10] = molecular target: T1, E6AP AZUL 24-87; assay: fluorescence competition (100 nM S358C-acrylodan:AZUL)
E6AP AZUL 24-87 [11] = molecular target: T1, E6AP AZUL 24-87; assay: fluorescence competition (50 nM S358C-acrylodan, 10 nM AZUL)

Molecule: Rpn10 322-366 (from UniProt P55036)
- Kd (E6AP AZUL (Homo sapiens) [1]): 189 nM

Molecule: Rpn10 RAZUL (from UniProt P55036)
- Kd (E6AP AZUL (Homo sapiens) [2]): 11.6 nM
- Kd (E6AP AZUL (Homo sapiens) [3]): 8.1 nM

B4: Rpn10 RAZUL S337C-acrylodan 305-377 (protein)
chain: SADIDASSAMDTSEPAKEEDDYDVMQDPEFLQSVLENLPGVDPNNEAIRNAMGSLASQATKDGKKDKKEEDKK
modifications: S337C labeled with acrylodan
- Kd (E6AP AZUL 24-87 [4]): < 35 nM

B5: Rpn10 RAZUL S337C 305-377 (protein)
chain: B4 chain with S33C
- Kd (E6AP AZUL 24-87 [4]): < 30 nM

B6: Rpn10 RAZUL S337C-Atto610 305-377 (protein)
chain: B4 chain
modifications: S337C labeled with Atto610
- Kd (E6AP AZUL 24-87 [6]): 16.3 nM

Other lines, results leading:

- Kd (E6AP AZUL 24-87 [4]): 6.9 nM
B1: Rpn10 RAZUL S361C 305-377 (protein)
chain: B4 chain with S57C

- Kd (E6AP AZUL 24-87 [5]): ~18 nM
- Kd (E6AP AZUL 24-87 [6]): 2.97 nM
B2: Rpn10 RAZUL S358C-acrylodan 305-377 (protein)
chain: B4 chain
modifications: S358C labeled with acrylodan

- Kd (E6AP AZUL 24-87 [4]): < 30 nM
B3: Rpn10 RAZUL S358C 305-377 (protein)
chain: B4 chain with S54C

- Ki (E6AP AZUL 24-87 [7]): 780 nM
- Ki (E6AP AZUL 24-87 [8]): 664 nM
- Ki (E6AP AZUL 24-87 [9]): 1260 nM
- Ki (E6AP AZUL 24-87 [10]): 18200 nM
- Ki (E6AP AZUL 24-87 [11]): 28.5 nM
Molecule: EEDDYDVMQDPEFLQSVLENLPGVDPNNEAIRNAMGSLASQATKD [Rpn10 RAZUL peptide 322-366]

- Ki (E6AP AZUL 24-87 [11]): 42.6 nM
Molecule: EEDD[pY]DVMQDPEFLQSVLENLPGVDPNNEAIRNAMGSLASQATKD [Rpn10 RAZUL peptide Y326p 322-366]

Reference: PMC10935766 (2024)
